Results from IntAct's records for PubMed 16720724.

B1: Activin receptor type-1B (Homo sapiens), P36896 (parent)
chain: MAESAGASSFFPLVVLLLAGSGGSGPRGVQALLCACTSCLQANYTCETDGACMVSIFNLDGMEHHVRTCIPKVELVPAGKPFYCLSSEDLRNTHCCYTDYCNRIDLRVPSGHLKEPEHPSMWGPVELVGIIAGPVFLLFLIIIIVFLVINYHQRVYHNRQRLDMEDPSCEMCLSKDKTLQDLVYDLSTSGSGSGLPLFVQRTVARTIVLQEIIGKGRFGEVWRGRWRGGDVAVKIFSSREERSWFREAEIYQTVMLRHENILGFIAADNKDNGTWTQLWLVSDYHEHGSLFDYLNRYTVTIEGMIKLALSAASGLAHLHMEIVGTQGKPGIAHRDLKSKNILVKKNGMCAIADLGLAVRHDAVTDTIDIAPNQRVGTKRYMAPEVLDETINMKHFDSFKCADIYALGLVYWEIARRCNSGGVHEEYQLPYYDLVPSDPSIEEMRKVVCDQKLRPNIPNWWQSYEALRVMGKMMRECWYANGAARLTALRIKKTLSQLSVQEDVKI

Variants of: B1
Settings: with smad7_human SMAD7, O15105
Chain of smad7_human SMAD7, O15105 (O15105 whole entry): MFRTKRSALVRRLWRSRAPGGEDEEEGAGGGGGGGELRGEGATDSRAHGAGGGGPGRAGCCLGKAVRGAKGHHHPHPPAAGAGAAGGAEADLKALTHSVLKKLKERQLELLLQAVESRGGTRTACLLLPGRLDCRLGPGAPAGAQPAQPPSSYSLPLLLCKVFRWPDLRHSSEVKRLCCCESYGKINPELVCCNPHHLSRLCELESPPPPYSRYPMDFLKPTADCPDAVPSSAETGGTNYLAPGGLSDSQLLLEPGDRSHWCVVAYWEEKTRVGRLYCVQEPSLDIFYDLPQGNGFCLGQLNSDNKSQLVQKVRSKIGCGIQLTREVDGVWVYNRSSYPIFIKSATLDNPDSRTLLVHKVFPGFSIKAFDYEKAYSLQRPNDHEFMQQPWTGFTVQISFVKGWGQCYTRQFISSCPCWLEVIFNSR

Variant | effect of a mutation on the interaction
T206E | increasing interaction
